Holding throughout (assay): smFRET
For data set [1], the target named is T1, POT1;TPP1N-Alexa 647 (Homo sapiens;Homo sapiens?, UniProt Q9NUX5;Q96AP0 1-634;3-248, |).
The target of data set [2] is T2, POT1 (Homo sapiens, UniProt Q9NUX5 1-634).
T2 sequence: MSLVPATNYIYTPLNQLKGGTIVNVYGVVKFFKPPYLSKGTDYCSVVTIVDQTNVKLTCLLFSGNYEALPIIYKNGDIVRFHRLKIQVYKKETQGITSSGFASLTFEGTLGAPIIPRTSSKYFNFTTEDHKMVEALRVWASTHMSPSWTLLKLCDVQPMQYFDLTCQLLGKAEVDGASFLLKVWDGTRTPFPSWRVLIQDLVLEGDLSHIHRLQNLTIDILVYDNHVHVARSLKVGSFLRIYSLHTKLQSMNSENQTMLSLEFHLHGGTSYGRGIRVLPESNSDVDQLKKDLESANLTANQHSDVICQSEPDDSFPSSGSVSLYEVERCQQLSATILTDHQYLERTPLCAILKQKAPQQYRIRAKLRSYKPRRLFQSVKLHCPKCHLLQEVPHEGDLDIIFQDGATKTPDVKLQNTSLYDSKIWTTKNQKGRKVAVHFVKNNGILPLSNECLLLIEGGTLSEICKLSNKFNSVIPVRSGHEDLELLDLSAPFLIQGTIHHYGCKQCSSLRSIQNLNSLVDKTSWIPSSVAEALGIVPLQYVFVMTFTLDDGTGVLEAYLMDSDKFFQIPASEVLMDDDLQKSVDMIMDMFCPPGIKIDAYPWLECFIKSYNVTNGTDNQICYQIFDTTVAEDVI

The target of data set [3] is T3, POT1;TPP1N (Homo sapiens;Homo sapiens?, UniProt Q9NUX5;Q96AP0 1-634;3-248, |).
Data set [4] has as its target T2, POT1. This is another data set of the same source.
Data set [5] concerns the target T2, POT1. The source holds these as a separate data set.
Data set [6] addresses T3, POT1;TPP1N. This is another data set of the same source.
For data set [7], the target named is T2, POT1. This is another data set of the same source.
In data set [8] the target is T1, POT1;TPP1N-Alexa 647. The source holds these as a separate data set.
For data set [9], the target named is T1, POT1;TPP1N-Alexa 647. The source holds these as a separate data set.
Data set [10] has as its target T2, POT1. This is another data set of the same source.
Data set [11] addresses T2, POT1. The source holds these as a separate data set.

Residue numbers refer to the chain shown, from its start. Read-outs that look alike come from different tables or passages of the source.

T1 sequence (Q96AP0 3-248, one chain of several): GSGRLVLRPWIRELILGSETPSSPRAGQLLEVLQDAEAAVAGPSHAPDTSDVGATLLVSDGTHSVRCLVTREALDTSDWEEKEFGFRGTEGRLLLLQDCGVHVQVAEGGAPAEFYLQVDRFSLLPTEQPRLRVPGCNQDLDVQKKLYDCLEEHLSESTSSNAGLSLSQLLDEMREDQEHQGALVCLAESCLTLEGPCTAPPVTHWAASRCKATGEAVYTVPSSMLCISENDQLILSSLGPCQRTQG
T3 sequence (Q96AP0 3-248, one chain of several): as above

B1: G2-mut4 (unlabelled stem strand) (mixed)
DNA 1: TGGCGACGGCAGCGAGGCTTAGGGTTAGGGTTTGGCTTTGGCTTTGGCTTTGGC
DNA 2: GCCTCGCTGCCGTCGCCA
Take B1: the binding result with POT1;TPP1N-Alexa 647 [1] is listed as “binds”.

B2: G2 (mixed)
DNA 1: TGGCGACGGCAGCGAGGCTTAGGGTTAGGG
DNA 2: GCCTCGCTGCCGTCGCCA
For the molecule B2, in the data set with POT1 [2], the binding result is “binds”.

B3: G4 (24 nt FRET) (mixed)
DNA 1: TGGCGACGGCAGCGAGGCTTAGGGTTAGGGTTAGGGTTAGGG
DNA 2: GCCTCGCTGCCGTCGCCA
For B3, the binding result in the data set with POT1;TPP1N [3] and in the data set with POT1 [4] was “binds” in each case.

B4: G4 (6 nt Cy3) (mixed)
DNA 1: B3 DNA 1
DNA 2: GCCTCGCTGCCGTCGCCA
modifications: internal Cy3 in strand 1 after nt 24
As for B4, the binding result with POT1 [5] is “binds”.

B5: G4 (18 nt Cy3) (mixed)
DNA 1: B3 DNA 1
DNA 2: GCCTCGCTGCCGTCGCCA
modifications: internal Cy3 in strand 1 after nt 36
For the molecule B5, the binding result with POT1;TPP1N [6] and with POT1 [5] was “binds” throughout.

B6: G2-mut2 (FRET with Cy5 stem) (mixed)
DNA 1: B3 DNA 1 with A33T, G36C, A39T, G42C
DNA 2: GCCTCGCTGCCGTCGCCA
For the molecule B6, the binding result with POT1 [7] is “binds”.

B7: G4 (3'Cy3, unlabelled stem strand) (mixed)
DNA 1: B3 DNA 1
DNA 2: GCCTCGCTGCCGTCGCCA
As to B7, in the data set with POT1;TPP1N-Alexa 647 [8], the binding result is “binds”.

B8: G2-mut2 (unlabelled stem strand) (mixed)
DNA 1: B3 DNA 1 with A33T, G36C, A39T, G42C
DNA 2: GCCTCGCTGCCGTCGCCA
B8: in the data set with POT1;TPP1N-Alexa 647 [9], the binding result is listed as “binds”.

B9: OB2 mutant (mixed)
DNA 1: TGGCGACGGCAGCGAGGCTTAGGGTTTT
DNA 2: GCCTCGCTGCCGTCGCCA
Take B9: the binding result with POT1 [10] is “binds”.

B10: G3 (mixed)
DNA 1: TGGCGACGGCAGCGAGGCTTAGGGTTAGGGTTAGGG
DNA 2: GCCTCGCTGCCGTCGCCA
With B10, the binding result with POT1 [11] is “binds”.

These data come from publication PMC4109716.
